In this assay the target is TraB_(31-110) (plasmid pIP501 (originally isolated from Streptococcus agalactiae, mainly found in Enterococci)). In words: cross-linking; 10 µg TraB_(31-110) in 50 µl with 0/0.001/0.01/0.05/0.1% glutaraldehyde in 50 mM Bicine, 150 mM NaCl, 1 mM DTT, 20 min at room temperature; Tween-20 micelles; SDS-PAGE.

Values joined by “and” are separate entries in the source; they are usually repeats but may differ in a detail not shown here. Identical values can stand only once.

Turning to TraB_(31-110) (domain or fragment), the stoichiometry N was 2 and 4.

By stoichiometry N is commonly meant a count of units in the complex or per binding partner.

For the origin of these results see paper PMC9083827.
